The results in this text go back to patent US20190359693A1 (Janssen / Centocor, published 2019).

Changes are numbered by the printed parent chain.

To fix the notation:
B1: SD1084 (VHH)
VHH: EVQLVESGGGLVQPGGSLKLSCAASGFTFSTSWMYWLRQAPGKGLEWVSVINTDGGTYYADSVKDRFTISRDNAKDTLYLQMSSLKSEDTAVYYCAKDWGGPEPTRGQGTQVTVSS
B2: SD3001 (VHH)
VHH: B1 VHH with K19R, Y35S, D65G, A74S, D76N, S83N, K86R, S87A
B3: SD3002 (VHH)
VHH: B1 VHH with K19R, D65G, A74S, D76N, S83N, K86R, S87A
B4: SD3086 (VHH)
VHH: B1 VHH with K19R, L37V, D65G, A74S, D76N, S83N, K86R, S87A, Q111L
B5: SD3004 (VHH)
VHH: B1 VHH with K19R, D65G, A74S, S83N, K86R, S87A
B6: SD3085 (VHH)
VHH: B1 VHH with K19R, D65G, A74S, D76N, S83N, K86R, S87A, Q111L
B7: SD3003 (VHH)
VHH: B1 VHH with K19R, Y35S, D65G, A74S, S83N, K86R, S87A
B8: SD3007 (VHH)
VHH: EVQLLESGGGLVQPGGSLRLSCAASGFTLENKAIGWFRQAPGKEREGVSCISKSGSWTYYADSVKGRFTISRDNSKNTVYLQMNSLRAEDTAVYYCATTTAGGGLCWDGTTFSRLASSWGQGTQVTVSS
B9: SD3008 (VHH)
VHH: B8 VHH with A88P
B10: SD3011 (VHH)
VHH: B8 VHH with S49L
B11: SD3087 (VHH)
VHH: B8 VHH with S49L, A88P, Q124L
B12: SD3010 (VHH)
VHH: B8 VHH with S49L, V79L
B13: SD3012 (VHH)
VHH: B8 VHH with S49L, A88P
B14: SD3009 (VHH)
VHH: B8 VHH with I34M, G35S, S49L, V79L
B15: SD3088 (VHH)
VHH: B8 VHH with S49L, V79L, Q124L
B16: SD1083 (VHH)
VHH: EVQLVESGGGLVQPGGSLRLSCAATGFTLENKAIGWFRQTPGSEREGVLCISKSGSWTYYTDSMRGRFTISRDNAENTVYLQMDSLKPEDTAVYYCATTTAGGGLCWDGTTFSRLASSWGQGTQVTVSS
B17: SD1087 (VHH)
VHH: EVQLVESGGGLVQPGGSLRLSCVISGLSLDTYAVGWFRQAPGKEREGITCISSGHGMTYYADSVKGRFTVSTDNAKNTVYLQMNGLQPEDTARYYCATESRYYCSDNWPAPQRYIYWGQGTQVTVSS
B18: SD3050 (VHH)
VHH: B17 VHH with V23A, I24A, V34M, G35S, V70I, T72R, A75S, V79L, G85S
B19: SD3049 (VHH)
VHH: EVQLVESGGGLVQPGGSLRLSCAASGLSLDTYAMSWFRQAPGKEREGVSCISSGHGMTYYADSVKGRFTISRDNSKNTLYLQMNSLQPEDTARYYCATESRYYCSDNWPAPQRYIYWGQGTQVTVSS

For the assay, the target named is hemagglutinin (HA) of influenza B/Brisbane/60/08 (Victoria) (influenza B virus). In words: cell-based or functional assay.
As to B1, the “VNA IC50” value came to 12 nM.
On to B2, for which the “VNA IC50” value was determined as 101 nM.
For B3, the “VNA IC50” value is 5 nM.
With B4 the figure was 40 nM; with B5, 5 nM.
With B6 the figure was 12 nM; with B7, 101 nM.
For the molecule B8, the “VNA IC50” value is more than 1000 nM.
Consider B9, for which the “VNA IC50” value is more than 1000 nM.
With B10 the figure was 53 nM.
As for B11, the figure is 32 nM.
Turning to B12, the “VNA IC50” value turned out to be 149 nM.
With B13 the figure was 59 nM; with B14, 194 nM.
With B15 the figure was 101 nM.
With B16, the “VNA IC50” value was 174 nM.
With B17 the figure was 34 nM.
As for B18, the figure is more than 1000 nM.
With B19 the figure was more than 1000 nM.
